# Measurements published in the supplement of paper PMC10567573.
# B1: MYBL2 (parent)
# chain: VKKSCWTEEEDRIICEAHKVLGNR
# Variants of: B1
# Assay: protein stability index of a GFP-peptide fusion (GPS, HEK-293T) (PSI 1-6); higher = more stable
# Conditions: c terminus: a fixed tail appended
# 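Further: lentivirally expressed fusions sorted by FACS into six bins by GFP to DsRed ratio, PSI derived from sequencing read proportions per bin multiplied by bin number.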
row,Variant,protein stability index
1,VKKSCWTEEEDRIICFAHKVLGNR,1.69
2,VKKSCWTEEEDRIICKAHKVLGNR,3.08
3,VKKSCWTEEEDRIICTAHKVLGNR,2.72
4,VKKSCWTEEEDRIICNAHKVLGNR,3.15
5,VKKSCWTEEEDRIICIAHKVLGNR,1.84
6,VKKSCWTEEEDRIICWAHKVLGNR,2.39
7,VKKSCWTEEEDRIICPAHKVLGNR,3.54
8,VKKSCWTEEEDRIICDAHKVLGNR,3.66
9,VKKSCWTEEEDRIICGAHKVLGNR,4
10,VKKSCWTEEEDRIICRAHKVLGNR,3.13
11,VKKSCWTEEEDRIICAAHKVLGNR,2.84
12,VKKSCWTEEEDRIICQAHKVLGNR,3.14
13,VKKSCWTEEEDRIICVAHKVLGNR,2.31
14,VKKSCWTEEEDRIICMAHKVLGNR,1.78
15,VKKSCWTEEEDRIICLAHKVLGNR,1.83
16,VKKSCWTEEEDRIICHAHKVLGNR,3.1
17,VKKSCWTEEEDRIICSAHKVLGNR,3.06
18,VKKSCWTEEEDRIICCAHKVLGNR,1.94
19,VKKSCWTEEEDRIICYAHKVLGNR,2.32
20,VKKSCWTEEEDRIICEAHCVLGNR,3.3
21,VKKSCWTEEEDRIICEAHSVLGNR,4.02
22,VKKSCWTEEEDRIICEAHPVLGNR,3.28
23,VKKSCWTEEEDRIICEAHWVLGNR,1.91
24,VKKSCWTEEEDRIICEAHQVLGNR,4.09

row,Variant,protein stability index
1,VKKSCWTEEEDRIICEAHGVLGNR,3.67
2,VKKSCWTEEEDRIICEAHEVLGNR,4.27
3,VKKSCWTEEEDRIICEAHDVLGNR,3.86
4,VKKSCWTEEEDRIICEAHTVLGNR,3.44
5,VKKSCWTEEEDRIICEAHFVLGNR,2.19
6,VKKSCWTEEEDRIICEAHLVLGNR,2.69
7,VKKSCWTEEEDRIICEAHRVLGNR,3.23
8,VKKSCWTEEEDRIICEAHIVLGNR,2.03
9,VKKSCWTEEEDRIICEAHNVLGNR,3.41
10,VKKSCWTEEEDRIICEAHYVLGNR,2.59
11,VKKSCWTEEEDRIICEAHAVLGNR,3.21
12,VKKSCWTEEEDRIICEAHMVLGNR,2.93
13,VKKSCWTEEEDRIICEAHHVLGNR,2.99
14,VKKSCWTEEEDRIICEAHVVLGNR,3.5
15,VKKSCWTEEEDRIICEHHKVLGNR,3.46
16,VKKSCWTEEEDRIICECHKVLGNR,2.12
17,VKKSCWTEEEDRIICEIHKVLGNR,2.09
18,VKKSCWTEEEDRIICEKHKVLGNR,3.68
19,VKKSCWTEEEDRIICELHKVLGNR,1.59
20,VKKSCWTEEEDRIICEEHKVLGNR,3.49
21,VKKSCWTEEEDRIICEPHKVLGNR,3.12
22,VKKSCWTEEEDRIICEMHKVLGNR,3.03
23,VKKSCWTEEEDRIICENHKVLGNR,3.88
24,VKKSCWTEEEDRIICEDHKVLGNR,4.36

row,Variant,protein stability index
1,VKKSCWTEEEDRIICERHKVLGNR,3.51
2,VKKSCWTEEEDRIICEFHKVLGNR,2.65
3,VKKSCWTEEEDRIICEYHKVLGNR,2.39
4,VKKSCWTEEEDRIICESHKVLGNR,3.36
5,VKKSCWTEEEDRIICEGHKVLGNR,4.14
6,VKKSCWTEEEDRIICETHKVLGNR,2.92
7,VKKSCWTEEEDRIICEVHKVLGNR,2.37
8,VKKSCWTEEEDRIICEWHKVLGNR,2.55
9,VKKSCWTEEEDRIICEQHKVLGNR,3.83
10,VKKSCWTEEEDRIICEAHKDLGNR,4.37
11,VKKSCWTEEEDRIICEAHKQLGNR,4.5
12,VKKSCWTEEEDRIICEAHKFLGNR,2.86
13,VKKSCWTEEEDRIICEAHKCLGNR,3.84
14,VKKSCWTEEEDRIICEAHKMLGNR,3.15
15,VKKSCWTEEEDRIICEAHKWLGNR,2.04
16,VKKSCWTEEEDRIICEAHKHLGNR,2.55
17,VKKSCWTEEEDRIICEAHKYLGNR,3.12
18,VKKSCWTEEEDRIICEAHKTLGNR,3.34
19,VKKSCWTEEEDRIICEAHKKLGNR,3.67
20,VKKSCWTEEEDRIICEAHKALGNR,3.51
21,VKKSCWTEEEDRIICEAHKPLGNR,3.72
22,VKKSCWTEEEDRIICEAHKNLGNR,3.99
23,VKKSCWTEEEDRIICEAHKILGNR,2.75
24,VKKSCWTEEEDRIICEAHKELGNR,4.03

row,Variant,protein stability index
1,VKKSCWTEEEDRIICEAHKSLGNR,3.55
2,VKKSCWTEEEDRIICEAHKRLGNR,3.59
3,VKKSCWTEEEDRIICEAHKGLGNR,3.67
4,VKKSCWTEEEDRIICEAHKLLGNR,3.15
5,VKKSCWTEEEDRIICEAPKVLGNR,4
6,VKKSCWTEEEDRIICEADKVLGNR,4.01
7,VKKSCWTEEEDRIICEAGKVLGNR,3.2
8,VKKSCWTEEEDRIICEASKVLGNR,3.81
9,VKKSCWTEEEDRIICEATKVLGNR,3.79
10,VKKSCWTEEEDRIICEAFKVLGNR,2.63
11,VKKSCWTEEEDRIICEAQKVLGNR,3.35
12,VKKSCWTEEEDRIICEALKVLGNR,2.45
13,VKKSCWTEEEDRIICEAKKVLGNR,3.73
14,VKKSCWTEEEDRIICEAEKVLGNR,3.83
15,VKKSCWTEEEDRIICEAYKVLGNR,2.56
16,VKKSCWTEEEDRIICEACKVLGNR,1.8
17,VKKSCWTEEEDRIICEAIKVLGNR,2.91
18,VKKSCWTEEEDRIICEAWKVLGNR,2.18
19,VKKSCWTEEEDRIICEAAKVLGNR,3.47
20,VKKSCWTEEEDRIICEAVKVLGNR,2.2
21,VKKSCWTEEEDRIICEAMKVLGNR,2.73
22,VKKSCWTEEEDRIICEANKVLGNR,3.88
23,VKKSCWTEEEDRIICEARKVLGNR,2.69
24,VKKSCWTEEEDRPICEAHKVLGNR,3.85

row,Variant,protein stability index
1,VKKSCWTEEEDRMICEAHKVLGNR,3.67
2,VKKSCWTEEEDRNICEAHKVLGNR,3.46
3,VKKSCWTEEEDRYICEAHKVLGNR,3.01
4,VKKSCWTEEEDRTICEAHKVLGNR,3.74
5,VKKSCWTEEEDRVICEAHKVLGNR,4.55
6,VKKSCWTEEEDRSICEAHKVLGNR,4.32
7,VKKSCWTEEEDRWICEAHKVLGNR,2.47
8,VKKSCWTEEEDRQICEAHKVLGNR,4.24
9,VKKSCWTEEEDRLICEAHKVLGNR,3.06
10,VKKSCWTEEEDRHICEAHKVLGNR,3.29
11,VKKSCWTEEEDRRICEAHKVLGNR,3.19
12,VKKSCWTEEEDRKICEAHKVLGNR,3.82
13,VKKSCWTEEEDRIICEAHKVLHNR,3.11
14,VKKSCWTEEEDRIICEAHKVLANR,3.17
15,VKKSCWTEEEDRIICEAHKVLCNR,3.03
16,VKKSCWTEEEDRIICEAHKVLENR,3.96
17,VKKSCWTEEEDRIICEAHKVLKNR,3.11
18,VKKSCWTEEEDRIICEAHKVLNNR,3.32
19,VKKSCWTEEEDRIICEAHKVLSNR,2.7
20,VKKSCWTEEEDRIICEAHKVLFNR,2.54
21,VKKSCWTEEEDRIICEAHKVLLNR,2.64
22,VKKSCWTEEEDRIICEAHKVLWNR,2.28
23,VKKSCWTEEEDRIICEAHKVLMNR,2.89
24,VKKSCWTEEEDRIICEAHKVLDNR,3.38

row,Variant,protein stability index
1,VKKSCWTEEEDRIICEAHKVLPNR,3.54
2,VKKSCWTEEEDRIICEAHKVLQNR,1.97
3,VKKSCWTEEEDRIICEAHKVLTNR,2.83
4,VKKSCWTEEEDRIICEAHKVLVNR,2.86
5,VKKSCWTEEEDRIICEAHKVLINR,2.58
6,VKKSCWTEEEDRIICEAHKVLYNR,2.79
7,VKKSCWTEEEDRIICEAHKVLRNR,2.99
8,VKKSCWTEEEDRIICEAHKVLGER,3.96
9,VKKSCWTEEEDRIICEAHKVLGDR,3.64
10,VKKSCWTEEEDRIICEAHKVLGFR,2.21
11,VKKSCWTEEEDRIICEAHKVLGCR,3.23
12,VKKSCWTEEEDRIICEAHKVLGAR,3.08
13,VKKSCWTEEEDRISCEAHKVLGNR,4.11
14,VKKSCWTEEEDRIYCEAHKVLGNR,3.23
15,VKKSCWTEEEDRIECEAHKVLGNR,4.24
16,VKKSCWTEEEDRIACEAHKVLGNR,4.24
17,VKKSCWTEEEDRINCEAHKVLGNR,3.28
18,VKKSCWTEEEDRICCEAHKVLGNR,3.3
19,VKKSCWTEEEDRIKCEAHKVLGNR,4.53
20,VKKSCWTEEEDRIWCEAHKVLGNR,3.12
21,VKKSCWTEEEDRIFCEAHKVLGNR,2.91
22,VKKSCWTEEEDRIVCEAHKVLGNR,3.71
23,VKKSCWTEEEDRIHCEAHKVLGNR,4.29
24,VKKSCWTEEEDRIGCEAHKVLGNR,2.86

row,Variant,protein stability index
1,VKKSCWTEEEDRIMCEAHKVLGNR,3.29
2,VKKSCWTEEEDRIQCEAHKVLGNR,4
3,VKKSCWTEEEDRITCEAHKVLGNR,4.39
4,VKKSCWTEEEDRIRCEAHKVLGNR,3.7
5,VKKSCWTEEEDRIPCEAHKVLGNR,3.67
6,VKKSCWTEEEDRIDCEAHKVLGNR,3.69
7,VKKSCWTEEEDRILCEAHKVLGNR,3.41
8,VKKSCWTEEEDRIICEAHKVSGNR,3.3
9,VKKSCWTEEEDRIICEAHKVAGNR,3.42
10,VKKSCWTEEEDRIICEAHKVYGNR,3.71
11,VKKSCWTEEEDRIICEAHKVFGNR,2.94
12,VKKSCWTEEEDRIICEAHKVEGNR,3.83
13,VKKSCWTEEEDRIICEAHKVHGNR,3.53
14,VKKSCWTEEEDRIICEAHKVMGNR,3.79
15,VKKSCWTEEEDRIICEAHKVVGNR,3.35
16,VKKSCWTEEEDRIICEAHKVKGNR,3.26
17,VKKSCWTEEEDRIICEAHKVIGNR,3.15
18,VKKSCWTEEEDRIICEAHKVPGNR,3.8
19,VKKSCWTEEEDRIICEAHKVWGNR,3.33
20,VKKSCWTEEEDRIICEAHKVGGNR,3.44
21,VKKSCWTEEEDRIICEAHKVDGNR,4.36
22,VKKSCWTEEEDRIICEAHKVQGNR,3.64
23,VKKSCWTEEEDRIICEAHKVNGNR,3.83
24,VKKSCWTEEEDRIICEAHKVCGNR,3.66

row,Variant,protein stability index
1,VKKSCWTEEEDRIICEAHKVTGNR,3.44
2,VKKSCWTEEEDRIIKEAHKVLGNR,3.47
3,VKKSCWTEEEDRIIWEAHKVLGNR,2.59
4,VKKSCWTEEEDRIIFEAHKVLGNR,2.79
5,VKKSCWTEEEDRIIHEAHKVLGNR,3.76
6,VKKSCWTEEEDRIISEAHKVLGNR,3.69
7,VKKSCWTEEEDRIIVEAHKVLGNR,3.85
8,VKKSCWTEEEDRIIDEAHKVLGNR,4.16
9,VKKSCWTEEEDRIIREAHKVLGNR,3.36
10,VKKSCWTEEEDRIIQEAHKVLGNR,3.85
11,VKKSCWTEEEDRIITEAHKVLGNR,3.74
12,VKKSCWTEEEDRIIMEAHKVLGNR,2.87
13,VKKSCWTEEEDRIIPEAHKVLGNR,4.16
14,VKKSCWTEEEDRIIGEAHKVLGNR,4.39
15,VKKSCWTEEEDRIIIEAHKVLGNR,3.47
16,VKKSCWTEEEDRIILEAHKVLGNR,3.82
17,VKKSCWTEEEDRIIEEAHKVLGNR,3.94
18,VKKSCWTEEEDRIIAEAHKVLGNR,3.43
19,VKKSCWTEEEDRIINEAHKVLGNR,3.65
20,VKKSCWTEEEDRIIYEAHKVLGNR,3.01
